# Reference: PMC5472440
# Assays:
# hIno80CTD (human) [1] = assay: MST; details: Hill coefficient 1.8 +/- 0.2, MST: 25 mM HEPES pH 8.0, 50 mM NaCl, 1 mM TCEP, 10% glycerol, 0.01% Tween-20, 0.1 mg/mL BSA, 25 C, EMSA: 25 mM HEPES pH 8.0, 50 mM NaCl, 0.5 mM …
# hIno80CTD (human) [2] = assay: EMSA; details: Kd apparent, 50 nM DNA, MST: 25 mM HEPES pH 8.0, 50 mM NaCl, 1 mM TCEP, 10% glycerol, 0.01% Tween-20, 0.1 mg/mL BSA, 25 C, EMSA: 25 mM HEPES pH 8.0, 50 mM NaCl, 0.5 mM …
substance,measurement,setting,value
50 bp duplex DNA,K half,hIno80CTD (human) [1],1000 nM
same,Kd,hIno80CTD (human) [2],1000 nM
